Values joined by “and” are separate entries in the source; they are usually repeats but may differ in a detail not shown here. Equal values may be shown once.
How the values were obtained:
[1] = target: platelet glycoprotein GPIb-IX complex (Homo sapiens (Human)) (UniProt P07359)
[2] = target: platelet glycoprotein GPIb-IX complex (Homo sapiens (Human)) (UniProt P07359); assay: inhibition of botrocetin-induced 125I-vWF binding to washed platelets (procedure of Ruggeri et al.); competitor vWF

Substance	botrocetin/ristocetin-induced agglutination inhibition assay using PRP [1]	concentration that inhibited the binding of vWF to platelets [2] [nM]
CC, platelet antiadhesive purified from Cerastes cerastes venom	3 µg/mL and 2 µg/mL	–
CHH-B, platelet antiadhesive (GPIb inhibitor) purified from Crotalus horridus horridus venom	–	< 200
purified protein from C. horridus horridus, as prepared in Example 2 (as tested in Example 6)	2 µg/mL and 3 µg/mL	–
